The record followed here is publication PMC12474298 (Viruses, 2025).

What is called Kd is a measure of binding affinity in units of concentration. Higher therefore signals lower affinity.

Where no end group is shown, it is not given here.

The test addresses mouse importin α2 lacking the importin-β binding domain (mouse IMPα2ΔIBB) (mouse, UniProt P52293 70-529). The test can be described thus: fluorescence polarisation. As to conditions: both partners purified.

B1: HaHV1 UL36h NLS peptide (residues 1491-1500), FITC/Ahx-labelled (peptide)
peptide: ETKKRRRILE
modifications: not fully specified (N-terminus); also: FITC/Ahx-labelled, position not given here
notes: also called HaHV1 NLS; HaHV1-NLS
On to B1, for which the affinity, expressed as Kd, was 609 nM.
